# Measurements taken from US20230002492A1 (SIMCERE SHANGHAI PHARMACEUTICAL, published 2023).
# Key:
# [1] = target: T1, PD-L1 on the surface of CHO-PD-L1 cells (UniProt Q9NZQ7 19-290, limits assumed); test: flow cytometry on CHO-PD-L1 cells, anti-human IgG PE
# T1 construct: whole, on cells; also called CHO-PD-L1 cells (Nanjing Yongshan Biotechnology); CHO cell line (GenScript, Cat. M00613) stably transfected with PD-L1
# Protocol: (§1) A gradient concentration of antibodies to be detected (final concentration of antibody: 10000 ng/ml-0.1 ng/ml, 10-foldserial dilution) were incubated with CHO-PD-L1 cells (Nanjing Yongshan Biotechnology Co., Ltd., 10⁵ cells/well) with high expression of PD-L1 on the cell surface at 4° C. ° C. for 30min. After incubation, 1:250 diluted anti-human IgG PE fluorescent antibody (eBioscience, Cat. 12-4998-8) was added, and incubated at 4° C. for 30 min. The fluorescent antibody specifically bound to the Fc fragment of the antibody to be detected. The fluorescent intensity of PE was detected by FACS, and the ability of the antibody to be detected to bind to PD-L1 protein highly expressed on the cell surface was analyzed. […] MFI fold=MFI value of the experimental group/MFI value of the control group without drugs.
# [2] = target: T2, recombinant human PD-L1-His (Novoprotein, Cat. 315) (human, UniProt Q9NZQ7 19-239); test: SPR, Biacore T200, antibody captured, human PD-L1-His injected, 1:1 model, 25 C
# T2 construct: Bought protein; also called human PD-L1 recombinant protein; human PDL1 protein; not shown: His tag
# Protocol: (§2) Biacore T200 (GE Healthcare) was used to determine binding affinity of the PD-L1 antibody to the human and cynomolgus monkey PD-L1-His proteins. Anti-human IgG Fc (Genway, Cat. GWB-20A705) was immobilized on CM5 chip (GE Healthcare, Cat. BR-1005-30) at 25° C. Anti-human Fc (Genway, Cat. GWB-20A705) was diluted to […] with Acetate pH5.0 (GE Healthcare, BR-1003-51). The Amine method in the Immobilization method was used to immobilize. Alternatively, a commercially available Protein A (GE Healthcare, Cat. 29127556) chip was used for detection. […] In each cycle, the antibody to be tested was captured on the fixed CM5 chip, then injected with recombinant human PD-L1-His (Novoprotein, Cat. 315) and cynomolgus monkey PD-L1-His protein (Sino Biological, Cat. 90251-CO8H), and finally regenerated with Glycine pH1.5. The mobile phase was HBS-EP+Buffer (GE Healthcare, Cat. BR-1006-69), the flow rate was 30 μL/min, and the binding time was 300 seconds. The regeneration flow rate was 30 μL/min and the time was 30 seconds. Using Biacore T200 evaluation software (version 3.0), a 1:1 binding model was used to analyze the experimental data, fit the equilibrium dissociation constant KD of the antibody and antigen, and determine the binding rate constant Ka and dissociation rate constant Kd.
# [3] = target: T1, PD-L1 on the surface of CHO-PD-L1 cells; test: cell-based or functional assay
# [4] = target: T3, recombinant human PD-L1 protein (Sino Biological, Cat. 10084-H05H) (human, UniProt Q9NZQ7 19-239); test: competitive ELISA: PD-L1 coated, antibody titrated against PD-1-His, anti-His-HRP
# T3 construct: also called PD-L1-mFc; human PD-L1 protein fused with mouse Fc
# Protocol: (§3) The recombinant human PD-L1 protein (Sino Biological, Cat. 10084-H05H) was diluted with carbonate buffer and added to a 96-well plate at a final concentration of […]. […] Then HRP-labeled anti-His tag antibody (MBL, Cat. D291-7) was added, and color development was performed with TMB. After termination with 1M sulfuric acid, OD values (dual wavelength 450 nm-630 nm) were read. The competitive binding curve of the test antibody can be drawn by matching the antibody concentration with the OD value to calculate the IC50 value.
# [5] = target: T4, cynomolgus monkey PD-L1-His protein (Sino Biological, Cat. 90251-CO8H) (cynomolgus monkey, UniProt G7PSE7 19-238); test: SPR, Biacore T200, antibody captured, PD-L1-His injected, 1:1 model, 25 C
# T4 construct: Bought protein; also called cynomolgus monkey PD-L1 recombinant protein
# Protocol: as §2
# [6] = target: T2, recombinant human PD-L1-His …; test: as above
# Protocol: as §2
# [7] = target: T3, recombinant human PD-L1 protein (Sino …); test: competitive ELISA: coated human PD-L1 protein, antibody titrated together with human PD-1-His, bound PD-1-His detected with HRP anti-His
# Protocol: as §3
# [8] = target: T1, PD-L1 on the surface of CHO-PD-L1 cells; test: flow cytometry on CHO-PD-L1 cells, anti-human IgG PE, MFI fold, ng/ml is the unit of the concentration axis
# Protocol: as §1
# T4 sequence (G7PSE7 entry or part of it limits assumed): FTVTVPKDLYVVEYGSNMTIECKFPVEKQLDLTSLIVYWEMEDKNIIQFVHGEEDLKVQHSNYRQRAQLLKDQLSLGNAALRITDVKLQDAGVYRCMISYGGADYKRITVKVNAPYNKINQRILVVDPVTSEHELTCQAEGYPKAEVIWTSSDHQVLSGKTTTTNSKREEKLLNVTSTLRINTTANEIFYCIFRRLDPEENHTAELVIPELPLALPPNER
# T2 sequence (Q9NZQ7 19-239 limits assumed): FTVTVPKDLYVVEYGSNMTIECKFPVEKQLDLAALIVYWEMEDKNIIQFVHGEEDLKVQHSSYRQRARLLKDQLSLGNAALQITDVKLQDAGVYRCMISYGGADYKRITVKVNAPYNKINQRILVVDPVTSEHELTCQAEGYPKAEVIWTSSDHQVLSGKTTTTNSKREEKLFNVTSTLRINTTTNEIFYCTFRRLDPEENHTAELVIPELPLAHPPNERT
# T3 sequence (Q9NZQ7 19-239 limits assumed): as above
# T1 sequence (Q9NZQ7 19-290 limits assumed): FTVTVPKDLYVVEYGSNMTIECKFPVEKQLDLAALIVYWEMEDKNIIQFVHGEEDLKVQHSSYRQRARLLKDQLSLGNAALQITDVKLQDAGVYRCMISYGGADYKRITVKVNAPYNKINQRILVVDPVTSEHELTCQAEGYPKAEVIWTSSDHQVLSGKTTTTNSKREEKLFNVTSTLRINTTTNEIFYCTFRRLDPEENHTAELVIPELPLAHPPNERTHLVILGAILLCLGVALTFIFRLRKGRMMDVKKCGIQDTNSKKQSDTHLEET
Binder,EC50 [1],Kd [2],koff [2],kon [2],"EC50 of NFAT luminescence reporter gene (RLU), Jurkat-PD-1 / CHO-PD-L1 co-culture [3]",IC50 [4],Kd [5],Kd [6],IC50 [7],EC50 [8]
"156-11H (antibody, V domains shown) VH: QVQLVQSGPELKKPGASVKISCKASGYTFTDYYMNWVRQAPGQSLEWIGDIWPNNGDTSYNQKFKGRVTLTRDTSTSTVYMELRSLRSEDTAVYYCARSVMDYWGQGTLVTVSS VL: EIVLTQSPALLSLSPGERVTLSCSASSSVNYVYWYQQKPGQAPRPLIYLTFNLASGIPARFSGSGSGTDFTLTISSLEPEDFAVYYCQQWSVNPLTFGGGTKVEIK",0.05 µg/mL,0.336 nM,0.000193 s⁻¹,574000 M⁻¹ s⁻¹,0.282 µg/mL,0.207 µg/mL,–,–,–,–
"156-7H (antibody, V domains shown) VH: QVQLVQSGPELKKPGASVKISCKASGYTFTDYYMNWVRQAPGQSLEWIGDIWPNNGDTSYNQKFKGRVTLTRDTSTSTVYMELRSLRSEDTAVYYCARSVMDTWGQGTLVTVSS VL: EIVLTQSPALLSLSPGERVTLSCSASSSVNYVYWYQQKPGQAPRPLIYLTFNLASGIPARFSGSGSGTDFTLTISSLEPEDFAVYYCQQWSVNPLTFGGGTKVEIK",0.0784 µg/mL,0.348 nM,0.00018 s⁻¹,518000 M⁻¹ s⁻¹,0.314 µg/mL,0.231 µg/mL,–,–,–,–
"156-10H (antibody, V domains shown) VH: QVQLVQSGPELKKPGASVKISCKASGYTFTDYYMNWVRQAPGQSLEWIGDIWPNNGDTSYNQKFKGRVTLTRDTSTSTVYMELRSLRSEDTAVYYCARSVMSDWGQGTLVTVSS VL: EIVLTQSPALLSLSPGERVTLSCSASSSVNYVYWYQQKPGQAPRPLIYLTFNLASGIPARFSGSGSGTDFTLTISSLEPEDFAVYYCQQWSSNPLTFGGGTKVEIK",0.0635 µg/mL,0.224 nM,0.000133 s⁻¹,595000 M⁻¹ s⁻¹,0.357 µg/mL,0.25 µg/mL,–,–,–,–
"156-1H (antibody, V domains shown) VH: QVQLVQSGPELKKPGASVKISCKASGYTFTDYYMNWVRQAPGQSLEWIGDIWPNNGDTWYNQKFKGRVTLTRDTSTSTVYMELRSLRSEDTAVYYCARSVMDYWGQGTLVTVSS VL: EIVLTQSPALLSLSPGERVTLSCSASSSVNYVYWYQQKPGQAPRPLIYLTFNLASGIPARFSGSGSGTDFTLTISSLEPEDFAVYYCQQWSVNPLTFGGGTKVEIK",0.0494 µg/mL,0.458 nM,0.000227 s⁻¹,494000 M⁻¹ s⁻¹,0.342 µg/mL,0.197 µg/mL,–,–,–,–
"PDL1-370 (antibody, V domains shown) VH: EVQLQESGPGLAKPSQTLSLTCSVTGYSITSDYWNWIRKFPGNKLEYMGYISYTGSTYYNPSLKSRISIARDTSRNQYYLQLNSVTTEDSATYYCARAGGWLLPFAVWGTGTTVTVSS VL: DIVITQSPSSLAVSVGEKVTMSCKSSQSLLYSSNQQNSLAWYQQKPGQSPILLIYWASTRESGVPDRFTGGGSGTDFTLTISSVRAEDLAVYYCQQYYNYPWTFGGGTKLEIK",–,–,–,–,–,–,2.18 nM,2.42 nM,0.156 µg/mL,–
"PDL1-50 (antibody, V domains shown) VH: EVQLQESGGDLVKPGGSLKLSCAASGFTFNTYGMSWVRQTPDKRLEWVATLSSGGSYTYYSESVKGRFTISRDNAKNTLYLQMTSLKSEDTAIYYCARPTADWHLDVWGTGTTVTVSS VL: DIQMTQSPSSLSASLGGKVTITCKASQDINKYIAWYQHKPGKGPRLLIHYTSTLQPGIPSRFSGSGSGRDYSFSISNLEPEDIATYYCLQHDNLLFTFGSGTKLEIK",–,–,–,–,–,–,33.1 nM,0.699 nM,0.294 µg/mL,0.113 µg/mL

# Other lines, results leading:
EC50 [1],Kd [2],koff [2],kon [2],"EC50 of NFAT luminescence reporter gene (RLU), Jurkat-PD-1 / CHO-PD-L1 co-culture [3]",IC50 [4],Kd [5],Kd [6],IC50 [7],EC50 [8],Binder
–,–,–,–,–,–,0.883 nM,1.25 nM,0.191 µg/mL,–,"PDL1-794 (antibody, V domains shown) VH: EVQLQESGPSLVKPSQTLSLTCSVTGDSITSGYWNWIRKFPGNKLEYMGYISYSGSTYYNPFLKSRISITRDTSKNQYYLQLNSVTTEDTATYYCAKMGDWLAWFAYWGQGTTVTVSS VL: not shown"
–,–,–,–,–,–,1.95 nM,2.18 nM,0.225 µg/mL,0.0646 µg/mL,"PDL1-130 (antibody, V domains shown) VH: EVQLQESGPGLAKPSQTLSLTCSVTGYSITSDYWNWIRKFPGNKLEYVGYISYTGSTYYNPSLRSRISITRDTSKNQYYLQLNSVTAEDTATYYCARCPGWLNAMDYWGQGTTVTVSS VL: DILMTQSPSSLAVSVGEKVTLSCKSSQSLLYSNNQKNSLAWYQQKPGQSPKLLIYWASTGESGVPDRFTGSGSGTDFTLTISSVKAEDLAVYYCQQYYGYPFTFGAGTKLEIK"
–,–,–,–,–,–,2.76 nM,2.09 nM,0.184 µg/mL,–,"PDL1-413 (antibody, V domains shown) VH: EVQLQESGPGLAKPSQTLSLTCSVTGYSITSDYWNWIRKFPGNKLEYMGYISYTGSTYYNPSLKSRISIARDTSRNQYYLQLKSVTTEDTATYYCARAGGWLLPFAVWGTGTTVTVSS VL: DIVMTQSPSSLAVSVGEKVTMSCKSSQSLLYSSNQQNSLAWYQQKPGQSPILLIYWASTRESGVPDRFTGSGSGTDFTLTISSVRAEDLAVYYCQQYYSYPWTFGGGTKLEIK"
–,–,–,–,–,–,5.43 nM,0.458 nM,0.276 µg/mL,0.113 µg/mL,"PDL1-34 (antibody, V domains shown) VH: EVQLQESGGDLVKPGGSLKLSCAASGFTFNTYGMSWVRQTPDKRLEWVATLSSGGSYTYYSESVKGRFTISRDNAKNTLYLQMNSLKSEDTAIYYCARPTADWHLDVWGTGTTVTVSS VL: DILMTQSPSSLSASLGGKVTITCNASQDINKYIAWYQHKPGKGPSLLIHYTSTLQPGIPSRFSGSGSGRDYSFSISNLEPEDIATYYCLQHDNLLFTFGSGTKLEIK"
–,–,–,–,–,–,62.5 nM,0.87 nM,0.259 µg/mL,0.119 µg/mL,"PDL1-90 (antibody, V domains shown) VH: EVQLQESGGDLVKPGGSLKLSCTASGFTFSTYGMSWVRQTPDKRLEWVATVSSGGSYTYYPDSVKGRFTISRDNAKNTLYLQMSSLKSEDTAIYYCARPTADWHLDVWGTGTTVTVSS VL: DIQMTQTPSSLSASLGGKVTITCKASQDINRYIAWYQHKPGKGPSLLIHYTSTLQPGIPSRFSGSGSGRDYSFSISNLEPEDIATYYCLQHDNLLFTFGSGTKLEIK"
–,–,–,–,–,–,3.64 nM,2.45 nM,0.12 µg/mL,0.0633 µg/mL,"PDL1-373 (antibody, V domains shown) VH: EVQLQESGGGLVKPGGSLKLSCAASGFTFSDYGMHWVRQAPEKGLEWVAYISSGSSTIYYADTVKGRFTISRDNAKNTLFLQMTSLRSEDTAMYYCARRNFGSSYDYWGQGTTVTVSS VL: EIVMTQSHKFMSTSVGDRVSITCKASQDVDTPVAWYQQKPGQSPRLLIYWASIRHTGVPDRFTGSGSGTDFTLTISNVQSEDLADYFCQQYSSYPLTFGSGTKLEIK"
